Reference: the nanobody polyreactivity screen of Harvey et al. (2022)

Assay: yeast display, Sf9 membrane polyspecificity reagent, FACS + sequencing; frameworks hold sequencing errors
Method in brief: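 Nanobodies from a synthetic yeast display library (Saccharomyces cerevisiae BJ5465), induced 36–48 hours with galactose, were stained 1 hour at 4 °C with 10% biotinylated, detergent-solubilized Sf9 membrane reagent, enriched on streptavidin microbeads, then FACS-sorted. Anti-HA (expression) and streptavidin (reagent binding) fluorescence set low and high (top ~1%) gates. Polyreactivity labels come from the gate of origin. Genes were colony-PCR amplified, MiSeq 2 × 250 sequenced and filtered by CDR length.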

Sequence	polyreactivity (PSR sort gate)
QVQLVESGGGLVQAGGSLRISCAASGSTFGYNGMGWYRQAPGKERELVAAISGGARTYADSVKGRFTISRDNAKNTVYLLMNSLKPEDTAVYYCAADSPVSVTADDVFWGQGTQVTVSS	low polyreactivity
QVQLVESGGGLVQAGGSLRLSCAASGAIFFVNDMGWYRQAPGKERELVAAITYSSGGTYYADSVKGRFTISRDNAKNTVYLQMNSLKPEDTAVYYCAVDFFLSYYSDMDYWGQGTQVTVSS	low polyreactivity
QVQLVESGGGIVQAGGSLRLSCAASGRIFVDYDMGWYRQATGKERELVATISSGGSTNYADSVKGRFTISRDNAKNTVYLQMNSLKPEDSAVYHCNKDYHVRYYYWGQGTQVTVSS	low polyreactivity
QVQLVESGGGLVQAGGSLRLSCAATGITFIVYVMGWYRQAPGKERELFATISYDDSTYADSVKGSFTISRDNAKNTVYLQMNSLKPEDTAVYYDYWGQGTQVTVSS	low polyreactivity
QVQLVESGGGLVQARGSLRLSCAASGFIYRYNVMGWYRQAPGKERELVAAISTSGGRTYYADSVKGRFTISRDNAKITVYLQMNSLKPEDTAVYYCIAVISEVHKVRDGFYWGQGSQVTVSS	high polyreactivity
QVQLVESGGGLVQAGGSLRLSCAASGSIFVDNAMGWYRQATGKERELVAAISASGVTTYYADSVKGRFTISRDNAKNTVYLQMNSLKPEDTAVYYCNADYGSDDDVVRYDYWGQGTQVTVSS	low polyreactivity
QVQLVESGGGLVQAGGSLRLSCDASGRIFRANAMGWYRQAPGKERELVASISRGGSTNYADSVKGRFTISRDNAKNTVYLQMNRLKPEDTAVYYCAARLGFYPYGYTSWYTVYYWGQGTQVTVSS	low polyreactivity
QVQLVESGGGLVQAGGSLRLSCAASGSTLPSYAMGWYRQAPGKERELVAAISSSGGRTYYADSVKGRFTISRDNAKNTVYLQMNSLKPEDTAVYYCAALSVANYHGTDSGYWGQGTQVTVSS	high polyreactivity
QVQLVESGGGIVEAGVSLRISCAASGSIFTKNAMVWYRPAPGKARELVAAISSGGSTYYADSEKGRFSISRDNAKNTVYLQMNSLKPEDTAVYYCARGASFYLKFYYWGQGTQVTVSS	high polyreactivity
QVQLVESAGGLVQAGGSLRLSCAASGSIFYGNAMGWYRQAPGKERELVASITYSGGTTNYADSVKGRFTISRDTAKNTVYLQMNSLKPEDTAVYYCAADAIPDSVWYWEYDYWGQGTQVTVSS	low polyreactivity
QVQLVESGGGLVQAGGSLRLSCAASGRIFSGYAMGWDRQAPGKERELVAAITSRSGSTYYADSVKGRFTISRDNAKNTVYLQMNSLKPEDTAVYYCAKRLYKPGNVFYSVDQSDYWGQGTQVTVSS	low polyreactivity
QVQLVESGGGLVQAGGSLRLSCAASGRIFTTYAMGWYRPAPGKERELVAAISQNGGSTYYADSVKGRFTISRDNAKNTVFLQMNSLKPEDTAVYYCNAGPAGYYDYDYWGQGTLVTVSS	low polyreactivity
QVQLVESGGGLVQAGGSLRLSCAASGSTFPPNGMGWYRQAPGKERELVAAIRWRGGSTYYADSVKGRFTISRDNAKNTVYLQMNSLKPEDTAVYYCAKYVTYSRPTNSPSGKHVYWGQGTQVTVSS	low polyreactivity
QVQLVESGGGLVQAGGSLRLSCAASGITFYINAMGWYRQAPGKERELVAVIDSRGSSTFYADSVKGRFTISRDNAKNTVYLVMKSLKPEDTAVYYCAAEPFWDYYATFYWKYGYWGQGTQVTVSS	low polyreactivity
QGQLVESGGGLVHAGGSLRLSCAASGSIFTGNAMGWYIQAPGKEREMVAAITGRGGNTYYADSVKGRYTISRDNAKNTVYLQMMSLKPEETAGYYCAKVFFHTPIVPEYDYWGQGSQVTVSS	low polyreactivity
QVQLVESGGGLVQAGGSLRLSCAASGRIFGLYAMGWYRQAPGKERELVAAIRSSGGSTYYADSVKGRFTISRDNAQNTVYLQMISQKPDDTAVYYCAADGDEDGEYWGQGTQVTVSS	low polyreactivity
QVQLVESGGGLVQAGGSLRFSCAASGSIFPYYAMGWYRQAPGKERELVAAISDSGDSTYYADSVKGRFTISRDNAKNTVYLQMNSLKPEDTAVYYCAADQTSSYYDPWGDYWGQGTQVTVSS	low polyreactivity
QVQLVESGGGLVQAGGSLRLSCAASGNIFRYYVMGWYRQAPGKEREFVAAITSSGGSTYYADSVKGRFTISRDNAKNTVYLQMNSLKPEDTAVYYCAKDYWDPGWAEYDYWGQGTQVTVSS	low polyreactivity
QVQLVESGGGLVQAGGSLRLSCAASGFIFVRYAMGWYRQAPGKERELVASITRSGGSTYYADSVKGRFTISRDNAKNTVYLQMNSLKPEDTAVYYCNAGLLRRRMDYWGQGTQVTVSS	high polyreactivity
QVQLVESGGGLVQAGGSLRLSCAASGRIFVVYAMGWYRQAPGKERELVASISRGGRTYYADSVKGRFTISRDNAKNTVYLQMNSLKPEDTAVYDCAVVVYLKNRDLFDYWGQGTQVTVSS	low polyreactivity
QVQLVESAGGLVQAGGSLRLSCAASGIIFVENAMGWYRQAPGKERELVAAISWDGGSTYYADSVKGRFTISRDNAKNTVYLQMNSLNPEDTAVYYCAADLTISYSQEYYYWGQGTQVTVSS	low polyreactivity
QVQLVESGGGLVQAGGSLRLSCAASGRTFRGYAMGWYRQAPGKERELVAAISASGGSTYYADSVKGRFTISRDNAKNTVYLQMNSLKPEDTAVYYCAARFWFTKGYDYWGQGTQVTVSS	high polyreactivity

Sequence	polyreactivity (PSR sort gate)
QVLLVESGGGLVQAGGSLRLSCSASGNAMGWYRQAPGKERELVAAITRRGGSTYYADSVKGSFTISRDNAKNTVYLQMNSLKPEDTAVYYCADDNPSYNLWYGYWGQGTQVTVSS	low polyreactivity
QVQLVESGGGLVQAGGSLRLSCAASGRIFFIYAMGWYRQAPGKERELVAAITWRGGRTYYADSVKGRFTISRDNAKNTVYLQMNSLKPEDTAVYYCAADYRDSYLFYYWGQGTQVTVSS	high polyreactivity
QVQLVESGGGLVQAGGSLRLSSAASGRIFNSYAMGWYRQAPGKERELVAIIRSSGTTYYADSVKGRFTISRDNAKNSVYVQMNSLKPEDTAVYDCAADPYYWRQFNYDYWGHGTQVTVSS	high polyreactivity
QVQLVESGGGLVQAGGSLRLRCAASGGTFYYYAMGWYRQAPGKERELVAAISTSGTSTYYADSVKGRFTISRDNAKNTVYLQMNSLKPEDTAVYDCAARGLRVSSRGYYWGQGTQVTVSS	high polyreactivity
QVQLVESGGGLVQAGGSLRLSCAASGSTFKPNAMGWYRQAPGKERELVAAISGSGGSTYYADSVKGRFTISRDNAKNTVYLQMNSLKPEDTAVYYCAAYVYTIFSWYDYWGQGTQVTVSS	high polyreactivity
QVQLVESGGGLVQAGGSLRLSCAASGIIFWAYALGWYRQAPGKERELVAVISRGGSTNYADSVKGPFTISRDNAKNTVYLQMNSLKPEDTAVYYCAARYGWGQGTQVTVSS	high polyreactivity
QVQLVESGGGLVQAGGSLRLSCAASGLIFVANAMGWYRQAPGKERELVAAISRSGGITTYADSVKGRFTISRDNAKNTVYLQMNSLKPEDTAVYYCAADTDPNPLIDYTLPMDYWGQGTQVTVSS	low polyreactivity
QVQLVESGGGLVQAGGSLRLSCAASGITLYRYAMGCYRQAPGKERELVADISSGGGTTYYADSVKGRFTISRDNAKNTVYLQMNSLKPEDTAVYYCAADYGFRYPLYDYWGQGTQVTVSS	low polyreactivity
QVQLVESGGGLVQAGGSLRLSCAASGSTITYNAMGWYRQAPGKERELVAAITVSDGSTYYADSVKGRFTISRDNAKNTVYLQMNSLKPEDTAVYYCNKDRGHPFKYDYWGQGTQVTVSS	low polyreactivity
QVQLVESGGGLVQAGGSLRLSCAASGSTFLYYSMGWYRQAPGKETELVAAIDSGGSTYYADSVKWRFTISRDNAKNTVYLQMNSLKPEDTAVYYCNPDFADHWPPNGPGAHDYWGQGTQVTVSS	low polyreactivity
QVQLVESGGGLVQAGGSLRLSCAASGSTFKRYAMGWYRQAPGKEWELVAAISASGGSTSYADSVKGRFTISRDKAKNTVYLQMNSLIPEDTAVYYCARDRFRSRLDYWGQGTQVTVSS	high polyreactivity
QVQLVESGGGLVQAGGSLRLSCAASGSIFDLNVMGWYRQAPGKERELVAAITWSGGSTYYADSVKGRFTISRDNAKNTVYLQMNSLKPEDTAVDYCAADTASGDTLRPTLLYDYWGQGTQVTVSS	low polyreactivity
QVQLVESGGGLVQAGGSLRISCAASGYMFPWYTMGWYRQAPGKERELVAAITSGSSTYYADSVKGRFTISRDNAKNTVYLQMNSLKPEDTAVYYCNAYDDAYRLYRLRGRDYWGQGTQVTVSS	low polyreactivity
QVQLVESGGGLVQAGGSLRLSCAASGRIFPANAMGWYRQAPGKERELVAAISSSGGSTYYADSVKGRFTISRDNAKNTVYLQMNSLKPEDTAVYYCAKVHYRWPRVTWPNVWWSFEYWGQGTQVTVSS	low polyreactivity
QVQLVESGGGLVQAGGSLRLSCAASGSIFASYDMGWYRQAPGKERELVARITFNGGSTYYADSVKGRFTISRDNAKNTVYLQMNSLKPEETAVYYCNADYPWEYDYWGLGTQVTVSS	low polyreactivity
QVQLVETAGGLVQAGGSLRLSSAASGRIFPFNTMGWSRQAPGKERELVATITYRGDRTYYADSVKGRFTISRDNAKNTVYLQMNSLKPEDTGVYYCNARGTYYLGRYYWGQGTQETVSS	high polyreactivity
QVQLVESVGGLVQAGGSLRLSCAASGSIFITYAMGWYRQAPGKVRELVAAIRDSGDRTYYADSVKGRFTISRDNAKNTVYLQMNSLKPEDTAVYYCNARWQEPLKYDYWGQGTQVTVSS	low polyreactivity
QVQHVESGGGLVQAGVSLRLSCAASGFTFYNYAMGWYRQAPGKERELVAAITSSGTSTYYADSVKGRFTISRDNAKNTVYLQMNSLKPEDTAVYYCNAVSSYYYSYDYWGQGTQVTVSS	low polyreactivity
QVQLVESGGALVQAGGSLSLSCAASGSTYSYYAMGWYRQAPGKETEVVAAINRSGGSTYYADSVKGRFTISRDNAKYTVYLQMNSLKPEDTAVYYCAALRSKTVSYDRYDYWGQGTQVTVSS	high polyreactivity
QVQLEESGGGLVQAGGSLRLICAASGGIFQKYAMGWYRQAPGKERELVASNNTGVRTYYADSVKGRFTISRDNAKNTVYLQMNSLKPEDTAVYYCNADGGGPRKYTRTRGHWGQGTQVTVSS	low polyreactivity
QVQLVESGGGLVQAGGSLRLSCAASGSTFGLYTMGWYRQAPGKERELVASISIGGSTYYADSVKGRFTISRDNAKNTVYLQMNSLKPEDTAVYYCAADVKRDRVWGGDYWGQGTQVTVSS	low polyreactivity
